Measured values reported in patent publication US20140206609A1 (Sanofi, published 2014).
*1 amine or outer side, *2 acyl side, *3 side chain or, on linkers, in order; H or OH if unused. Where no end group is shown, it is not given here. Side-chain parts run from the residue outwards. [ ]: non-standard residue; d: D form. The star is where a group is joined. γGlu = O=C(O)[C@H](CCC(=O)[*:2])N[*:1]; Stearoyl = CCCCCCCCCCCCCCCCCC(=O)*; Palmitoyl = CCCCCCCCCCCCCCCC(=O)*; Aib = CC(C)(N)C(=O)O; βAla = NCCC(=O)O

Experiments:
Assay in all cases: cell-based or functional assay
human GLP-1 receptor = human GLP-1 receptor (human, UniProt P43220 24-463)
human GIP receptor = target: T1, human GIP receptor (human, UniProt P48546 22-466)
T1 sequence (looked up): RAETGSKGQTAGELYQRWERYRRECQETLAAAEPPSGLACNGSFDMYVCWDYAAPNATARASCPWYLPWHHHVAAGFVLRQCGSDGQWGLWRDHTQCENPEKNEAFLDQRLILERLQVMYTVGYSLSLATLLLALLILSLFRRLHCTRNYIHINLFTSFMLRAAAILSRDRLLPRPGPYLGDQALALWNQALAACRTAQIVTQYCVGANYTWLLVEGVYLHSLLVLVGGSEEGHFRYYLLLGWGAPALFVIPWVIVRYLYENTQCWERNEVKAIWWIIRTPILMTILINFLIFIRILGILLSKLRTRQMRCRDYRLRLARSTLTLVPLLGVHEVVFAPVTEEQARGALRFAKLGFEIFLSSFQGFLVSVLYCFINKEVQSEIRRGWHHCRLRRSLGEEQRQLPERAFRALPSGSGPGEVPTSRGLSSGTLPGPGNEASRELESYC

human glucagon receptor = human glucagon receptor (human, UniProt P47871 26-477)
Chain of human glucagon receptor (P47871 26-477): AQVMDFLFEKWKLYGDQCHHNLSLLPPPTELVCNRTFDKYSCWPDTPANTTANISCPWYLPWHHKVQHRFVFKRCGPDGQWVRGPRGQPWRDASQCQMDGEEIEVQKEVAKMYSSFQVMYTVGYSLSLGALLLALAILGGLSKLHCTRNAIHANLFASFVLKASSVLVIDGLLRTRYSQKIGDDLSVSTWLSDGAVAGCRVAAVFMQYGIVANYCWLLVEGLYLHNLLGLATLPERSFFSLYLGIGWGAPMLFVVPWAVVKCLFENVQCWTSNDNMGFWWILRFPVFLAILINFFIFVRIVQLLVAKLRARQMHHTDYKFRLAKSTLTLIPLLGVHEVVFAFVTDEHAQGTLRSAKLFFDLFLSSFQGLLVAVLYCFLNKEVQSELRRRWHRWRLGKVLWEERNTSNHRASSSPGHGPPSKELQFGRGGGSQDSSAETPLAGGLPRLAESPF

B1: SEQ ID NO: 10 (peptide)
peptide: Y[Aib]EGTFTSDLSIQK([γGlu-Palmitoyl])ESRAAQDFIEWLKAGGPSSGAPPPS-NH2
modifications: N-terminus assumed
SMILES: CCCCCCCCCCCCCCCC(=O)N[C@@H](CCC(=O)NCCCC[C@H](NC(=O)[C@H](CCC(N)=O)NC(=O)[C@@H](NC(=O)[C@H](CO)NC(=O)[C@H](CC(C)C)NC(=O)[C@H](CC(=O)O)NC(=O)[C@H](CO)NC(=O)[C@@H](NC(=O)[C@H](Cc1ccccc1)NC(=O)[C@@H](NC(=O)CNC(=O)[C@H](CCC(=O)O)NC(=O)C(C)(C)NC(=O)[C@@H](N)Cc1ccc(O)cc1)[C@@H](C)O)[C@@H](C)O)[C@@H](C)CC)C(=O)N[C@@H](CCC(=O)O)C(=O)N[C@@H](CO)C(=O)N[C@@H](CCCNC(=N)N)C(=O)N[C@@H](C)C(=O)N[C@@H](C)C(=O)N[C@@H](CCC(N)=O)C(=O)N[C@@H](CC(=O)O)C(=O)N[C@@H](Cc1ccccc1)C(=O)N[C@H](C(=O)N[C@@H](CCC(=O)O)C(=O)N[C@@H](Cc1c[nH]c2ccccc12)C(=O)N[C@@H](CC(C)C)C(=O)N[C@@H](CCCCN)C(=O)N[C@@H](C)C(=O)NCC(=O)NCC(=O)N1CCC[C@H]1C(=O)N[C@@H](CO)C(=O)N[C@@H](CO)C(=O)NCC(=O)N[C@@H](C)C(=O)N1CCC[C@H]1C(=O)N1CCC[C@H]1C(=O)N1CCC[C@H]1C(=O)N[C@@H](CO)C(N)=O)[C@@H](C)CC)C(=O)O
For B1, the “EC50 hGLP-1 R [pM]” value (human GLP-1 receptor) was 13.2 pM, the “EC50 hGIP R [pM]” value (human GIP receptor) was 15.1 pM and the “EC50 hGLUC R [pM]” value (human glucagon receptor) was 40000 pM.

B2: SEQ ID NO: 8 (peptide)
peptide: Y[Aib]QGTFTSDLSIQK([γGlu-Palmitoyl])EKRAA[Aib]EFIEWLKNTGPSSGAPPPS-NH2
modifications: N-terminus assumed
SMILES: CCCCCCCCCCCCCCCC(=O)N[C@@H](CCC(=O)NCCCC[C@H](NC(=O)[C@H](CCC(N)=O)NC(=O)[C@@H](NC(=O)[C@H](CO)NC(=O)[C@H](CC(C)C)NC(=O)[C@H](CC(=O)O)NC(=O)[C@H](CO)NC(=O)[C@@H](NC(=O)[C@H](Cc1ccccc1)NC(=O)[C@@H](NC(=O)CNC(=O)[C@H](CCC(N)=O)NC(=O)C(C)(C)NC(=O)[C@@H](N)Cc1ccc(O)cc1)[C@@H](C)O)[C@@H](C)O)[C@@H](C)CC)C(=O)N[C@@H](CCC(=O)O)C(=O)N[C@@H](CCCCN)C(=O)N[C@@H](CCCNC(=N)N)C(=O)N[C@@H](C)C(=O)N[C@@H](C)C(=O)NC(C)(C)C(=O)N[C@@H](CCC(=O)O)C(=O)N[C@@H](Cc1ccccc1)C(=O)N[C@H](C(=O)N[C@@H](CCC(=O)O)C(=O)N[C@@H](Cc1c[nH]c2ccccc12)C(=O)N[C@@H](CC(C)C)C(=O)N[C@@H](CCCCN)C(=O)N[C@@H](CC(N)=O)C(=O)N[C@H](C(=O)NCC(=O)N1CCC[C@H]1C(=O)N[C@@H](CO)C(=O)N[C@@H](CO)C(=O)NCC(=O)N[C@@H](C)C(=O)N1CCC[C@H]1C(=O)N1CCC[C@H]1C(=O)N1CCC[C@H]1C(=O)N[C@@H](CO)C(N)=O)[C@@H](C)O)[C@@H](C)CC)C(=O)O
With B2 the “EC50 hGLP-1 R [pM]” value (human GLP-1 receptor) was 5.3 pM, the “EC50 hGIP R [pM]” value (human GIP receptor) was 9.8 pM and the “EC50 hGLUC R [pM]” value (human glucagon receptor) was 18.3 pM.

B3: SEQ ID NO: 18 (peptide)
peptide: Y[Aib]EGTFTSDLSIQK([βAla-βAla-Stearoyl])EKRAA[Aib]EFIEWLKNTGPSSGAPPPS-NH2
modifications: N-terminus assumed
SMILES: CCCCCCCCCCCCCCCCCC(=O)NCCC(=O)NCCC(=O)NCCCC[C@H](NC(=O)[C@H](CCC(N)=O)NC(=O)[C@@H](NC(=O)[C@H](CO)NC(=O)[C@H](CC(C)C)NC(=O)[C@H](CC(=O)O)NC(=O)[C@H](CO)NC(=O)[C@@H](NC(=O)[C@H](Cc1ccccc1)NC(=O)[C@@H](NC(=O)CNC(=O)[C@H](CCC(=O)O)NC(=O)C(C)(C)NC(=O)[C@@H](N)Cc1ccc(O)cc1)[C@@H](C)O)[C@@H](C)O)[C@@H](C)CC)C(=O)N[C@@H](CCC(=O)O)C(=O)N[C@@H](CCCCN)C(=O)N[C@@H](CCCNC(=N)N)C(=O)N[C@@H](C)C(=O)N[C@@H](C)C(=O)NC(C)(C)C(=O)N[C@@H](CCC(=O)O)C(=O)N[C@@H](Cc1ccccc1)C(=O)N[C@H](C(=O)N[C@@H](CCC(=O)O)C(=O)N[C@@H](Cc1c[nH]c2ccccc12)C(=O)N[C@@H](CC(C)C)C(=O)N[C@@H](CCCCN)C(=O)N[C@@H](CC(N)=O)C(=O)N[C@H](C(=O)NCC(=O)N1CCC[C@H]1C(=O)N[C@@H](CO)C(=O)N[C@@H](CO)C(=O)NCC(=O)N[C@@H](C)C(=O)N1CCC[C@H]1C(=O)N1CCC[C@H]1C(=O)N1CCC[C@H]1C(=O)N[C@@H](CO)C(N)=O)[C@@H](C)O)[C@@H](C)CC
For B3, the “EC50 hGLP-1 R [pM]” value (human GLP-1 receptor) was 7.6 pM and the “EC50 hGLUC R [pM]” value (human glucagon receptor) was 4950 pM.

B4: SEQ ID NO: 39 (peptide)
peptide: Y[Aib]EGTFTSDLSIQK([γGlu-Palmitoyl])ESRAAQEFIEWLKAGGPSSGAPPPS-NH2
modifications: N-terminus assumed
SMILES: CCCCCCCCCCCCCCCC(=O)N[C@@H](CCC(=O)NCCCC[C@H](NC(=O)[C@H](CCC(N)=O)NC(=O)[C@@H](NC(=O)[C@H](CO)NC(=O)[C@H](CC(C)C)NC(=O)[C@H](CC(=O)O)NC(=O)[C@H](CO)NC(=O)[C@@H](NC(=O)[C@H](Cc1ccccc1)NC(=O)[C@@H](NC(=O)CNC(=O)[C@H](CCC(=O)O)NC(=O)C(C)(C)NC(=O)[C@@H](N)Cc1ccc(O)cc1)[C@@H](C)O)[C@@H](C)O)[C@@H](C)CC)C(=O)N[C@@H](CCC(=O)O)C(=O)N[C@@H](CO)C(=O)N[C@@H](CCCNC(=N)N)C(=O)N[C@@H](C)C(=O)N[C@@H](C)C(=O)N[C@@H](CCC(N)=O)C(=O)N[C@@H](CCC(=O)O)C(=O)N[C@@H](Cc1ccccc1)C(=O)N[C@H](C(=O)N[C@@H](CCC(=O)O)C(=O)N[C@@H](Cc1c[nH]c2ccccc12)C(=O)N[C@@H](CC(C)C)C(=O)N[C@@H](CCCCN)C(=O)N[C@@H](C)C(=O)NCC(=O)NCC(=O)N1CCC[C@H]1C(=O)N[C@@H](CO)C(=O)N[C@@H](CO)C(=O)NCC(=O)N[C@@H](C)C(=O)N1CCC[C@H]1C(=O)N1CCC[C@H]1C(=O)N1CCC[C@H]1C(=O)N[C@@H](CO)C(N)=O)[C@@H](C)CC)C(=O)O
With B4 the “EC50 hGLP-1 R [pM]” value (human GLP-1 receptor) was 4.3 pM, the “EC50 hGIP R [pM]” value (human GIP receptor) was 8.5 pM and the “EC50 hGLUC R [pM]” value (human glucagon receptor) was 19300 pM.

B5: SEQ ID NO: 38 (peptide)
peptide: Y[Aib]QGTFTSDLSIQK([γGlu-Palmitoyl])DKRAA[Aib]EFIEWLKNTGPSSGAPPPS-NH2
modifications: N-terminus assumed
SMILES: CCCCCCCCCCCCCCCC(=O)N[C@@H](CCC(=O)NCCCC[C@H](NC(=O)[C@H](CCC(N)=O)NC(=O)[C@@H](NC(=O)[C@H](CO)NC(=O)[C@H](CC(C)C)NC(=O)[C@H](CC(=O)O)NC(=O)[C@H](CO)NC(=O)[C@@H](NC(=O)[C@H](Cc1ccccc1)NC(=O)[C@@H](NC(=O)CNC(=O)[C@H](CCC(N)=O)NC(=O)C(C)(C)NC(=O)[C@@H](N)Cc1ccc(O)cc1)[C@@H](C)O)[C@@H](C)O)[C@@H](C)CC)C(=O)N[C@@H](CC(=O)O)C(=O)N[C@@H](CCCCN)C(=O)N[C@@H](CCCNC(=N)N)C(=O)N[C@@H](C)C(=O)N[C@@H](C)C(=O)NC(C)(C)C(=O)N[C@@H](CCC(=O)O)C(=O)N[C@@H](Cc1ccccc1)C(=O)N[C@H](C(=O)N[C@@H](CCC(=O)O)C(=O)N[C@@H](Cc1c[nH]c2ccccc12)C(=O)N[C@@H](CC(C)C)C(=O)N[C@@H](CCCCN)C(=O)N[C@@H](CC(N)=O)C(=O)N[C@H](C(=O)NCC(=O)N1CCC[C@H]1C(=O)N[C@@H](CO)C(=O)N[C@@H](CO)C(=O)NCC(=O)N[C@@H](C)C(=O)N1CCC[C@H]1C(=O)N1CCC[C@H]1C(=O)N1CCC[C@H]1C(=O)N[C@@H](CO)C(N)=O)[C@@H](C)O)[C@@H](C)CC)C(=O)O
With B5 the “EC50 hGLP-1 R [pM]” value (human GLP-1 receptor) was 6.7 pM, the “EC50 hGIP R [pM]” value (human GIP receptor) was 11.2 pM and the “EC50 hGLUC R [pM]” value (human glucagon receptor) was 11.4 pM.

B6: SEQ ID NO: 15 (peptide)
peptide: Y[Aib]EGTFTSDLSIQK([γGlu-Stearoyl])EKRAA[Aib]EFIEWLKNTGPSSGAPPPS-NH2
modifications: N-terminus assumed
SMILES: CCCCCCCCCCCCCCCCCC(=O)N[C@@H](CCC(=O)NCCCC[C@H](NC(=O)[C@H](CCC(N)=O)NC(=O)[C@@H](NC(=O)[C@H](CO)NC(=O)[C@H](CC(C)C)NC(=O)[C@H](CC(=O)O)NC(=O)[C@H](CO)NC(=O)[C@@H](NC(=O)[C@H](Cc1ccccc1)NC(=O)[C@@H](NC(=O)CNC(=O)[C@H](CCC(=O)O)NC(=O)C(C)(C)NC(=O)[C@@H](N)Cc1ccc(O)cc1)[C@@H](C)O)[C@@H](C)O)[C@@H](C)CC)C(=O)N[C@@H](CCC(=O)O)C(=O)N[C@@H](CCCCN)C(=O)N[C@@H](CCCNC(=N)N)C(=O)N[C@@H](C)C(=O)N[C@@H](C)C(=O)NC(C)(C)C(=O)N[C@@H](CCC(=O)O)C(=O)N[C@@H](Cc1ccccc1)C(=O)N[C@H](C(=O)N[C@@H](CCC(=O)O)C(=O)N[C@@H](Cc1c[nH]c2ccccc12)C(=O)N[C@@H](CC(C)C)C(=O)N[C@@H](CCCCN)C(=O)N[C@@H](CC(N)=O)C(=O)N[C@H](C(=O)NCC(=O)N1CCC[C@H]1C(=O)N[C@@H](CO)C(=O)N[C@@H](CO)C(=O)NCC(=O)N[C@@H](C)C(=O)N1CCC[C@H]1C(=O)N1CCC[C@H]1C(=O)N1CCC[C@H]1C(=O)N[C@@H](CO)C(N)=O)[C@@H](C)O)[C@@H](C)CC)C(=O)O
In the case of B6, the “EC50 hGIP R [pM]” value (human GIP receptor) is reported as 8.2 pM and the “EC50 hGLUC R [pM]” value (human glucagon receptor) is reported as 5810 pM.
